Test results as given in the nanobody polyreactivity screen of Harvey et al. (2022).

Experiment: yeast display, Sf9 membrane polyspecificity reagent, FACS + sequencing; frameworks hold sequencing errors
In short: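 Synthetic nanobody libraries on Saccharomyces cerevisiae BJ5465 were galactose-induced for 36–48 hours, stained 1 hour at 4 °C with 10% biotinylated, detergent-solubilized Sf9 membrane reagent and enriched on streptavidin microbeads. FACS then separated cells into low and high (top ~1%) gates by anti-HA (expression) and streptavidin (reagent binding) fluorescence. Genes were colony-PCR amplified, MiSeq 2 × 250 sequenced and CDR-length filtered. A clone's polyreactivity label is that of its gate of origin.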

Sequence	polyreactivity (PSR sort gate)
QVQHVESGGGLVQAGGSLRLSCAASGRTITNYVMGWYRQSPGKEREFVATITARGGSTNYADSVKGRFTISRDNAKNTVYLQMNSLKPEDTAVYYCAAGRRFTVAYGYFYWGQGTQVTVSS	high polyreactivity
QVQHVESGGGLVQAGGSLRLSCAASGRTTYTNARGWYRQAPGKERELVASISWRGGSSYYADSVKGRFTISRDNAKNTVYLQMNSLIPEDTAVYYCAASWPRWWRFGYWGQGTQVTVSS	low polyreactivity
QVQHVESGGGLVQAGGSLRLSCAASGRTYGYYAMGWYRQAPGKERELVAAITRTGGSTHYADSVKGRFTISRDNAKNTVYLQMNSLKPEDTAVYYFARTSRHVRYDYWGEGTQVTVSS	low polyreactivity
QVQHVESGGGLVQAGGSLRLSCAASGSIFLVYAMGWYRLAPGKERELVAAISNSGSTNYADSVKGRFTISRDNAKNTVYLQMNSLKPEDTAVYYCAKDSLVDHVGGYDYWGHGTQVTVSS	low polyreactivity
QVQHVESGGGLVQAGGSLRLSCAASGSIFQKNAMGWYRKAPGKERELVAVITRGGTSTYYADSVKGRFTISRDNAKNTVYLQMNSLKPEDTAVYYCAAKADKRLDYWGQGTQVTVSS	low polyreactivity
QVQHVESGGGLVQAGGSLRLSCAASGSIFSHYAMGWYRQEPGKERELVATITWRGGSNTNYADSVKGRFTISRDNAKNTVYLQMNSLKPEDTAVYYCNAAFPYHYRFDYWGQGTQVTVSS	low polyreactivity
QVQHVESGGGLVQAGGSLRLSCAASGSIFTVNAMGWYRQAPGKERELVAAIDGSSGSTNYADSVKGRFTISRDNAKNTVYLQMNSLKPEDTAVYYCAADWSYEYGYWGQGTQVTVSS	low polyreactivity
QVQHVESGGGLVQAGGSLRLSCAASGSIFVPYALGWSRQAPGKEREFVAVISLRGSRTYYADSVKGRFTISRDNAKNTVYLQMNSLKPEDTAVYYCATTGYRLRQATRYDYRGQGTQVTVSS	high polyreactivity
QVQHVESGGGLVQAGGSLRLSCAASGSIFWYYAKGWYRQAPGKERELVATITSGGSTSYADSVKGRFTISRDNAKNPVYLQMNSLKPEDTAVYYCAAARLFTTYDWGQGTQVTVSS	low polyreactivity
QVQHVESGGGLVQAGGSLRLSCAASGSIFYDYAMGWYRQAPGKERELVAAISKSDGSTYYADSVKGRFTISRDNAKNTVYLQMNSLKPEDTAVYYCNADLIYSYPPEYDYWGQGTQVTVSS	high polyreactivity
QVQHVESGGGLVQAGGSLRLSCAASGSISPQNVMGWYRQAPGKERELVAAITGGGYTNYADSVKGRFTISRDNANNTVYLQMNSLKPEDTAVYYCNADYFQDRLDYWGQGTQVTVSS	low polyreactivity
QVQHVESGGGLVQAGGSLRLSCAASGSNSAYAMGWYRQAPGKERELVAAINSGGSTTYADSVKGRFTISRDNAKNTVYLQMNSLKPEDTAVYSCAARAPSFRYGTSNYPAYRLDYWGQGTQVTVSS	high polyreactivity
QVQHVESGGGLVQAGGSLRLSCAASGSTFDGYAMGWYRQAPGKERELVAAISRSGGRTYYADSVKGRFTISRDNAKNTVYLQMTSLKPEDTAVYYCAALYPYKREDYWGQGTQVTVSS	high polyreactivity
QVQHVESGGGLVQAGGSLRLSCAASGSTFDRYAMGWNRQAPGKERELVAAISGGGGSTYYADSVKGRFTISRDNAKNTVYLQMNSLKPEDTAVYYCAKLLARGNRYDSWGQGTQLTVSS	high polyreactivity
QVQHVESGGGLVQAGGSLRLSCAASGSTFDYYAMGWYRQAPGKERELVAAISDSARSTFYADSVKGRFTISRDNAKNTVYLQMNSLKPEDTAVYYCAAYFWSYWRSEGYSWGQGTKVTVSS	high polyreactivity
QVQHVESGGGLVQAGGSLRLSCAASGSTFGYNDMGRYRQAPGKERELVAAIDTGVSTNYADSVKGRFTISRDNAKNTVYLQMNSLKPEDTAVYYCAKSGSAYWHSGWSVGFDYWGQGTQVTVSS	low polyreactivity
QVQHVESGGGLVQAGGSLRLSCAASGSTFPTYAMGWYRQAPGKERELVADITWSGGSTYYADSVKGRFTISRDNAKNTVYLQMNSLKPEDTAVYYCNAAHRKGMYYWGQGTQVTVSS	high polyreactivity
QVQHVESGGGLVQAGGSLRLSCAASGSTFSYYAMGWSRQAPGKERELVAAISGSGASTYYADSVKGRFTISRDNAKNTVYLQMNSLKPEDTAVYYCAKYYVREHYDYWGQGTQVTVSS	low polyreactivity
QVQHVESGGGLVQAGGSLRLSCAASGSTFTGYTMGWYRQAPGKERELVASIRTYYADSVKGRFTISRDNAKNTVYLQMNSLKPEDTAVYYCAADFPSATGGYDYWGQGTQVTVSS	low polyreactivity
QVQHVESGGGLVQAGGSLRLSCAASGSTFTSYALGWYRQAPGKERELVAAISKSGGSTYYADSVKGRFTISRDNAKNTVYLQMNSLKPEDTSVYYCAASYNVRSYSTSRFDYWGQGTQVTVSS	low polyreactivity
QVQHVESGGGLVQAGGSLRLSCAASGSTFTWYTMGWYRQAPGKERELVATIRKRGGSTYYADSVKGRFTISRDNAKNTVYLQMNSLKPEDTAVYYCAAVYKVHSGLYEYWGQGTQVTVSS	high polyreactivity

Sequence	polyreactivity (PSR sort gate)
QVQHVESGGGLVQAGGSLRLSCAASGSTFVQNAMGWYRQAPGKERELVAAISRSGGRTYYAYSVKGRFTISRDNAKNTVYLQMNSLKPEDTAVYYCAARYPVRPDDGYWGKGTQVTVSS	high polyreactivity
QVQHVESGGGLVQAGGSLRLSCAASGSTFWFNAMGWYRQATGKVRELVAAITSGSTYYADSVKGRFTISRDNAKNTVYLPMNSLQPEYTAVYYCASTEFTFYYSYDYWAQGTQVTVSS	low polyreactivity
QVQHVESGGGLVQAGGSLRLSCAASGSTFWGYAMGWYRQAPGKERELVAAINWIGGSDTFYADSVKGRFTISRDNAKNTVYLQMNSLKPEDTAVYYCAATYYNLPYSWGYDSWGQGSQVTVSS	low polyreactivity
QVQHVESGGGLVQAGGSLRLSCAASGSTFYGYAMGWYRQAPGKERELVARISSSSGRTYYADSVKGRFTISRDNAKNTVYLQMNSLKPEDTAVFYCAARFLWSVFGRKGGYWGQGTQVTVSS	low polyreactivity
QVQHVESGGGLVQAGGSLRLSCAASGSTLGGYVMGWYRQAPGKERELVASITYSGGSTRYADSVKGRFTISRDNAKNTVYLQMNSLKPEDTAVYYCAAGAQRTYYTYSFRRVGYDYDYWGQGTQVTVSS	low polyreactivity
QVQHVESGGGLVQAGGSLRLSCAASGSTSGKYAMGWYRQAPGKERELVAGITKGGGGTYYADSVKGRFTISRDNAKNTVYLQLNSLKPEVTAVYYCAKYYGSGYYIYDYWGQGTQVTVSS	low polyreactivity
QVQHVESGGGLVQAGGSLRLSCAASGTTFYSYAMGWYRQAPGKERELVAAISWRTSSTYYADSVKGRFTISRDNAKNTVYLQMNSLKPEDTAVYYCAAETWLGSWRQVGMDYWGQGTQVTVSS	high polyreactivity
QVQHVESGGGLVQAGGSLRLSCAASGYTFGGNAMGWYRQAPGKERELVAAISSGGSTNYADSVKGRFTISRDNAKNTVYLQMNSLKPEDTAVYYCNKRGYYYWSGQDVASYDYWGQGTQLTVSS	low polyreactivity
QVQHVESGGGLVQAGGSLRLSCAASGYTFRYYAMGWYRQAPGKERELVARINRSGGSTYYADSVKGRFTISRDYAKYTVYLQMNSLKPEDTAVYYCNRDYGWHYSYDYWGQGTQVTVSS	high polyreactivity
QVQHVESGGGLVQAGGSLRLSCAASVLIFYIYAMGWYRQAPGKERELVAAITTGGRTNYADSVKGRFTISRDNAKNTVYLQMKSLKPEDTEVYYCAKDFPIWISHGPDTDNDYGGQGTQVTVSS	low polyreactivity
QVQHVESGGGLVQAGGSLRLSCADSGSTLRGNAMGWYRQAPGKEREMVAAISIGSRTNYADSVKGRFTISRDNAKNTDYLQMNSLKPEDTAVYYCAKDISLRVRGPYYFGFDYWGQGTQVTVSS	low polyreactivity
QVQHVESGGGLVQAGGSLRLSCAPSGSIFRPYAMGWSRQAPGKEMELVAAISFSGAGTYYADSVKGRFTISRDNAKNTVYLQMNSLTPEDTAVYYCNARRYTTYWLLYEYDYWGQGTQVTVSS	low polyreactivity
QVQHVESGGGLVQAGGSLRLSCAPSGSTFYNNAMGWYRQAPGKERELVAAITRSGGSTYYADSVKGRFTISRDNAKNTVYLQMNSLKPEDTEVYYCNKYGYKGGVGYDYWGQGTQVTVSS	high polyreactivity
QVQHVESGGGLVQAGGSLRLSCGASGRIFRRYAMGWYSLAAVKEREFVAAISYGGGSTYYADSVKGRFTISRDNAKNTVYLQMNSLKPEDSAVYYCNADVPKSLLLYYPWGYGYWGQGTQVTVSS	low polyreactivity
QVQHVESGGGLVQAGGSLRLSCSASGSTFGLYAMGWSRQAPGKETELVAVISWRGGSTYYADSVKGRFTISRDNAKNTVYLQMNSLKPEDTAVYYCAAYSRYPYVRYDYWGQGTQVTVSS	low polyreactivity
QVQHVESGGGLVQAGGSLRLSSAASGFIFILYAMGWYTQAPGKERELVAAISSCGTRTYYADSVKGRFTISRDNAKNTVYLQMISLKPEDTGVYYCNTAWRDYVARLGGVGYDYWGQGTQVTVSS	high polyreactivity
QVQHVESGGGLVQAGGSLRLSSAASGFTFNRYAMGWNSQAPGKESELVATITSGGNTYYADSVKGRFTLSRDNAKNTVYLEMNTLKPEDTAVYYCNNRGWYSVYRRDYWGQGTQVTVSS	high polyreactivity
QVQHVESGGGLVQAGGSLRLTCAASGYIFYYNAMGWYRHAPGKEREMVAAINYSGTSTYYADSVKGRFTISRDNAKNTVYLQMNSLKPEDTAVFYCAKVPHYPLAGRLAILDYWGQGSQVTVSS	high polyreactivity
QVQHVESGGGLVQAGGSLRLTCAATGFTFATYTMGWYRQAPGKERELFAAISSGGNTNYADSVKGRFTISRDNAKNTVYLQMNSLKPEDTAVYYCARGATLLQYYYWGVYEYDSWGQGTQVTVSS	low polyreactivity
QVQHVESGGGLVQAGGTLRLSSAASGSTYRWYAMGSYRQAPGKERELVAAITFRGGRTYYADSVKGRFTISRDNAKNTVYLQMNSLKPEDTAVYYFNAVTYSSPYRFDYWGQGTQVTVSS	low polyreactivity
